In PMC11317151, “DNA binding and bridging by human CtIP in the healthy and diseased states”:

Experiments:
MBP-CtIP-800-843 = MBP-CtIP-800-843 (human, UniProt Q99708 800-843); experiment: fluorescence-based binding assay; label not certain; weak binding equation; Anisotropy: 20 mM Tris-Cl pH 8.0, 20 mM NaCl, 1 mM DTT, 5 nM HEX fork; EMSA: 20 mM Tris-Cl pH 8.0, 100 mM NaCl, 1 mM DTT, 0.1 mg/ml BSA, 5% glycerol, 2.5 nM Cy5 fork, room temperature; C-Trap reaction: 10 mM Tris-Cl pH 7.6, 20 mM NaCl, 1 mM DTT, 0.1 mg/ml BSA; conditions: protein: recombinant; tags: MBP; label: 5'-HEX on strand 1; fork: 25 bp duplex, 20 nt 3' and 5' dT arms
Chain of MBP-CtIP-800-843 (Q99708 800-843): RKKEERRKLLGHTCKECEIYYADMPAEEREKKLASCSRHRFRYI

CtIP ΔN500b = CtIP ΔN500b (human, UniProt Q99708 501-897); experiment: fluorescence anisotropy; Anisotropy: 20 mM Tris-Cl pH 8.0, 20 mM NaCl, 1 mM DTT, 5 nM HEX fork; EMSA: 20 mM Tris-Cl pH 8.0, 100 mM NaCl, 1 mM DTT, 0.1 mg/ml BSA, 5% glycerol, 2.5 nM Cy5 fork, room temperature; C-Trap reaction: 10 mM Tris-Cl pH 7.6, 20 mM NaCl, 1 mM DTT, 0.1 mg/ml BSA; conditions: protein: recombinant; tags: StrepII; label: 5'-HEX on strand 1; fork: 25 bp duplex, 20 nt 3' and 5' dT arms
Chain of CtIP ΔN500b (Q99708 501-897, stated change not applied): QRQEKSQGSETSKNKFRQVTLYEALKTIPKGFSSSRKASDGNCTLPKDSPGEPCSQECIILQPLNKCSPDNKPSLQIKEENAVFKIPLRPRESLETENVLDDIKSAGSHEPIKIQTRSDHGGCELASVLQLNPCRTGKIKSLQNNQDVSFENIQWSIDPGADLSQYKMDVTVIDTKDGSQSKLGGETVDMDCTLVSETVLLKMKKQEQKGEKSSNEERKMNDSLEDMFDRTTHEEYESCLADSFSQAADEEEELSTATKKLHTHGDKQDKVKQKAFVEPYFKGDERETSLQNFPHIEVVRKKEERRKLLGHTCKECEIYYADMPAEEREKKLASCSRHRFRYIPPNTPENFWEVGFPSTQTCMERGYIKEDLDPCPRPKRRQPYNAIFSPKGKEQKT

CtIP ΔN500a = CtIP ΔN500a (human, UniProt Q99708 501-897); experiment: as above; conditions: protein: recombinant; tags: StrepII; chain copies: 2; label: 5'-HEX on strand 1; fork: 25 bp duplex, 20 nt 3' and 5' dT arms
Chain of CtIP ΔN500a (Q99708 501-897, stated change not applied): as above

CtIP WT [1] = biological target: T1, CtIP WT (human, UniProt Q99708 1-897); experiment: as above; conditions: protein: recombinant; tags: StrepII (cleavable); chain copies: 4; label: 5'-HEX on strand 1; fork: 25 bp duplex, 20 nt 3' and 5' dT arms
T1 sequence (Q99708 whole entry): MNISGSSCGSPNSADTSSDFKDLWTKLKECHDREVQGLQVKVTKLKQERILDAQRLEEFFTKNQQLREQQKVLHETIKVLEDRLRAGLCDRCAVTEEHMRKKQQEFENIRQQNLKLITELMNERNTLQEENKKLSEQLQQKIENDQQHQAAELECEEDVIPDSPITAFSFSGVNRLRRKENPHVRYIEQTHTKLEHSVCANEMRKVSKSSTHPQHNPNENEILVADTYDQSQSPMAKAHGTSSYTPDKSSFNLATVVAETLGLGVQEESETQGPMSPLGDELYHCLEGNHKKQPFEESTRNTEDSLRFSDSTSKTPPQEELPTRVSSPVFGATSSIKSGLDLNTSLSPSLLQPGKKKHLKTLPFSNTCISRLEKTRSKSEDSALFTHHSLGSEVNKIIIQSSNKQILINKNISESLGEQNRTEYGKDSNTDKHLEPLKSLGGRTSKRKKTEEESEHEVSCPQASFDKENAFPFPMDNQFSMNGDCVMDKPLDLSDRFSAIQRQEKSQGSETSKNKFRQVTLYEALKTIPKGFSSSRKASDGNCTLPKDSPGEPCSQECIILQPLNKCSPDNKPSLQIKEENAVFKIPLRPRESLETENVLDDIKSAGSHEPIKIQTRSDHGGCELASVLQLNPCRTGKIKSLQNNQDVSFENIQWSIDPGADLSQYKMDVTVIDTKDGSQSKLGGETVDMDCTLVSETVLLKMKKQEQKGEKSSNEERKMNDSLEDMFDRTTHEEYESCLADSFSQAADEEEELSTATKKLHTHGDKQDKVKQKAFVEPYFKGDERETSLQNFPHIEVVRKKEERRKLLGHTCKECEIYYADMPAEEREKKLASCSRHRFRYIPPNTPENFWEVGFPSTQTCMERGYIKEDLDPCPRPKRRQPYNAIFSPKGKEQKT

CtIP ΔN541b = CtIP ΔN541b (human, UniProt Q99708 542-897); experiment: as above; conditions: protein: recombinant; tags: StrepII; label: 5'-HEX on strand 1; fork: 25 bp duplex, 20 nt 3' and 5' dT arms
Chain of CtIP ΔN541b (Q99708 542-897, stated change not applied): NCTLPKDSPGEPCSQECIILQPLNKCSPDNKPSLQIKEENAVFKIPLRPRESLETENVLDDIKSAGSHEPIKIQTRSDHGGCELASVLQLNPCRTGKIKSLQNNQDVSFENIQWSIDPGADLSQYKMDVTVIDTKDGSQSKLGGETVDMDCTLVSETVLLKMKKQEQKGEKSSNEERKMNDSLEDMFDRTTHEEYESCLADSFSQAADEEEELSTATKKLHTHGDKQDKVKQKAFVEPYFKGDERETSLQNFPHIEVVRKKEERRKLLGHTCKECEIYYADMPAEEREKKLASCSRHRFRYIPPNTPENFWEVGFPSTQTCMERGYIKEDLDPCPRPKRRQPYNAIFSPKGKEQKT

CtIP ΔN541a = CtIP ΔN541a (human, UniProt Q99708 542-897); experiment: as above; conditions: protein: recombinant; tags: StrepII; chain copies: 2; label: 5'-HEX on strand 1; fork: 25 bp duplex, 20 nt 3' and 5' dT arms
Chain of CtIP ΔN541a (Q99708 542-897, stated change not applied): as above

CtIP R100W = CtIP R100W (human, UniProt Q99708 1-897, R100W); experiment: as above; conditions: protein: recombinant; tags: StrepII; chain copies: 4; label: 5'-HEX on strand 1; fork: 25 bp duplex, 20 nt 3' and 5' dT arms
Chain of CtIP R100W (Q99708 whole entry R100W): as the sequence (Q99708 whole entry) above, with R100W counted along it

CtIP ΔC608 [2] = biological target: T2, CtIP ΔC608 (human, UniProt Q99708 1-608); experiment: fluorescence anisotropy; no binding at 400 nM; Anisotropy: 20 mM Tris-Cl pH 8.0, 20 mM NaCl, 1 mM DTT, 5 nM HEX fork; EMSA: 20 mM Tris-Cl pH 8.0, 100 mM NaCl, 1 mM DTT, 0.1 mg/ml BSA, 5% glycerol, 2.5 nM Cy5 fork, room temperature; C-Trap reaction: 10 mM Tris-Cl pH 7.6, 20 mM NaCl, 1 mM DTT, 0.1 mg/ml BSA; conditions: protein: recombinant; tags: StrepII; chain copies: 4; label: 5'-HEX on strand 1; fork: 25 bp duplex, 20 nt 3' and 5' dT arms
T2 sequence (Q99708 1-608, stated change not applied): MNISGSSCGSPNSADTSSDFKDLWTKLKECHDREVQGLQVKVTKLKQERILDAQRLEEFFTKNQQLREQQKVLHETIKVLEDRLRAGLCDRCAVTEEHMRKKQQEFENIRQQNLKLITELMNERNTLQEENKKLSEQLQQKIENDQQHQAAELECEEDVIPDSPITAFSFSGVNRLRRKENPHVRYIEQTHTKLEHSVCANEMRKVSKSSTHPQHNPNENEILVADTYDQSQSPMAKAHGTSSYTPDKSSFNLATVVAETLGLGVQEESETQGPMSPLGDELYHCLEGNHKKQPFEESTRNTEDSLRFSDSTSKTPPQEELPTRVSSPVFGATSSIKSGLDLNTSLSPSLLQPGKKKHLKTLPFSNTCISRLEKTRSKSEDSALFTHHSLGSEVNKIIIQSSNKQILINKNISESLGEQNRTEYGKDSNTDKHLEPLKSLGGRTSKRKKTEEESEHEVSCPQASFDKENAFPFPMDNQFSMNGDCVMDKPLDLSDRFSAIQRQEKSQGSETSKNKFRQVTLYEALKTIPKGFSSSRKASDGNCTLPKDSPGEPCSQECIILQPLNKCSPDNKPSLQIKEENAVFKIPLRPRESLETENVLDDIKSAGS

CtIP WT [3] = biological target: T1, CtIP WT; experiment: fluorescence anisotropy; independent repeat; Anisotropy: 20 mM Tris-Cl pH 8.0, 20 mM NaCl, 1 mM DTT, 5 nM HEX fork; EMSA: 20 mM Tris-Cl pH 8.0, 100 mM NaCl, 1 mM DTT, 0.1 mg/ml BSA, 5% glycerol, 2.5 nM Cy5 fork, room temperature; C-Trap reaction: 10 mM Tris-Cl pH 7.6, 20 mM NaCl, 1 mM DTT, 0.1 mg/ml BSA; conditions: protein: recombinant; tags: StrepII (cleavable); chain copies: 4; label: 5'-HEX on strand 1; fork: 25 bp duplex, 20 nt 3' and 5' dT arms
CtIP ΔC608 [4] = biological target: T2, CtIP ΔC608; experiment: EMSA; undetectable at highest concentration; Anisotropy: 20 mM Tris-Cl pH 8.0, 20 mM NaCl, 1 mM DTT, 5 nM HEX fork; EMSA: 20 mM Tris-Cl pH 8.0, 100 mM NaCl, 1 mM DTT, 0.1 mg/ml BSA, 5% glycerol, 2.5 nM Cy5 fork, room temperature; C-Trap reaction: 10 mM Tris-Cl pH 7.6, 20 mM NaCl, 1 mM DTT, 0.1 mg/ml BSA; conditions: protein: recombinant; tags: StrepII; chain copies: 4; label: 5'-Cy5 on strand 1; fork: 25 bp duplex, 20 nt 3' and 5' dT arms
CtIP ΔN790 = CtIP ΔN790 (human, UniProt Q99708 791-897); experiment: fluorescence quenching; Results say Cy5-fork; Methods imply HEX (550 nm); Anisotropy: 20 mM Tris-Cl pH 8.0, 20 mM NaCl, 1 mM DTT, 5 nM HEX fork; EMSA: 20 mM Tris-Cl pH 8.0, 100 mM NaCl, 1 mM DTT, 0.1 mg/ml BSA, 5% glycerol, 2.5 nM Cy5 fork, room temperature; C-Trap reaction: 10 mM Tris-Cl pH 7.6, 20 mM NaCl, 1 mM DTT, 0.1 mg/ml BSA; conditions: protein: recombinant; tags: StrepII; label: 5'-Cy5 on strand 1; fork: 25 bp duplex, 20 nt 3' and 5' dT arms
Chain of CtIP ΔN790 (Q99708 791-897, stated change not applied): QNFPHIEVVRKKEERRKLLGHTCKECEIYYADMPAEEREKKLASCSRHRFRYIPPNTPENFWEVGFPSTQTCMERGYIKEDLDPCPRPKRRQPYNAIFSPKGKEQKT

Row | Binder | Kd (MBP-CtIP-800-843) [nM] | Kd (CtIP ΔN500b) [nM] | Kd (CtIP ΔN500a) [nM] | Kd (CtIP WT [1]) [nM] | Kd (CtIP ΔN541b) [nM] | Kd (CtIP ΔN541a) [nM] | Kd (CtIP R100W) [nM] | binding result (CtIP ΔC608 [2]) | Kd (CtIP WT [3]) [nM] | binding result (CtIP ΔC608 [4]) | Kd (CtIP ΔN790) [nM]
1 | HEX fork (mixed) DNA 1: GCTTGCTAGGACGGATCGCTCGAGGTTTTTTTTTTTTTTTTTTTT DNA 2: TTTTTTTTTTTTTTTTTTTTCCTCGAGCGATCCGTCCTAGCAAGC | 520 | 33 | 45 | 66 | 960 | 210 | 115 | no binding | 37 | – | –
2 | Cy5 fork (mixed) DNA 1: GCTTGCTAGGACGGATCGCTCGAGGTTTTTTTTTTTTTTTTTTTT DNA 2: TTTTTTTTTTTTTTTTTTTTCCTCGAGCGATCCGTCCTAGCAAGC | – | – | – | – | – | – | – | – | – | no binding | 270
